Reference: US20190040368A1

Molecular target: recombinant human iduronate-2 sulfatase (rhIDS) (human) (UniProt P22304)
Assay: cell-based or functional assay

Sequence of recombinant human iduronate-2 sulfatase (rhIDS) (human) (P22304 26-550 limits assumed): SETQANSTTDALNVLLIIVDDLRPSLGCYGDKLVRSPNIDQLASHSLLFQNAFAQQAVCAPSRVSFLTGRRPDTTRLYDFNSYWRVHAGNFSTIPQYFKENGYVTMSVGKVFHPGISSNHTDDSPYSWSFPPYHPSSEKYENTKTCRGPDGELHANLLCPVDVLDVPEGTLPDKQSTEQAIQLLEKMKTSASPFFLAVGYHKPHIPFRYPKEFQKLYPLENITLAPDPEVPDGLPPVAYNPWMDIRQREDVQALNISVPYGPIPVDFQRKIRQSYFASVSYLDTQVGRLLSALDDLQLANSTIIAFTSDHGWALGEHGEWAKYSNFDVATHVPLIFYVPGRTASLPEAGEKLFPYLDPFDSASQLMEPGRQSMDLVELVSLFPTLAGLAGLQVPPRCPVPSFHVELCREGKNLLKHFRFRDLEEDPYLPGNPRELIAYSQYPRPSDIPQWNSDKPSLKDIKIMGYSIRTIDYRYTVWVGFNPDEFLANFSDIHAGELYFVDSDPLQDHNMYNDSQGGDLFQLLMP

B1: Gallus gallus Lip2-GgFGE-His6-HDEL fusion construct (enzyme)
chain: GKETAPGGNCGCSASRSRGGEREAVATVRRYSAAANDGRSSGRGPMVAIPGGVFTMGTDEPEIQQDGEWPARRVHVNSFYMDQYEVSNQEFERFVNSTGYLTEAEKFGDSFVFEGMLSEEVKAEIHQAVAAAPWWLPVKGANWRQPEGPGSSILSRMDHPVLHVSWNDAVAFCTWAGKRLPTEAEWEYGCRGGLEKRLFPWGNKLQPKGQHYANIWQGVFPTNNTAEDGYKGTAPVTAFPPNGYGLYNIVGNAWEWTSDWWAVHHSADEAHNPKGPSSGTDRVKKGGSYMCHKSYCYRYRCAARSQNTPDSSASNLGFRCAADALPDPQHHHHHHHDEL
- % FGly (LC-MS); co-expression with GgFGE: 78%

B2: Hemicentrotus pulcherrimus FGE fusion protein (Lip2pre-HpFGE-6HIS-HDEL) (enzyme)
chain: ENEDINQNISPTQSHTTATTEEELAEARGEEIDSDPTSEGSGAGEGCGCGSSALNRNHDEDALGLALEENLHDHVQEGAALKYSREANDPISMDHPEANVGAFPRTNQMNFIEGGTFRMGTDKAKIYLDGESPSRLVTLDPYYFDVYEVSNSEFELFVNTTSYITEAEKFGDSFVLEARISEEVKKDISQVVAAAPWWLPVKGAEWRHPEGPDSSISSRMDHPVTHISWNDATAYCQWAGKRLPTEAEWENAARGGLNNRLFPWGNKLMPKDHHRVNIWQGEFPKVNTAEDGYEGTCPVTAFEPNGYGLYNTVGNAWEWVADWWTTVHSPESQNNPVGPDEGTDKVKKGGSYMCHISYCYRYRCEARSQNSPDSSACNLGFRCAATNLPEDIPCSNCNDSTPHHHHHHHDEL
- % FGly (LC-MS, cation exchange purified); OXYY1801 (20° C.), 1c rhIDS, 2c HpFGE: 100%
- % FGly (LC-MS, cation exchange purified); OXYY1801 (24° C.), 1c rhIDS, 2c HpFGE: 100%
- % FGly (LC-MS, cation exchange purified); OXYY1801 (26° C.), 1c rhIDS, 2c HpFGE: 70.4%

B3: Monodelphis domestica Lip2-MdFGE-His6-HDEL fusion construct (enzyme)
chain: AARGLGSEAGSAAADAAHPAGTCGCGSPQRPGTAAHRYSREANVAEPASAERPVLTSQMAHIPAGVFTMGTDEPQIKQDGEGPARRVRINSFYMDLYEVSNAEFERFVNSTGYVTEAEKFGDSFVFDSMLSDQVKSDIHQAVAAAPWWLPVKGANWRHPEGPDSSILHRRDHPVLHVSWNDAVAYCTWAGKRLPTEAEWEYSCRGGLENRLFPWGNKLQPKGQHYANIWQGEFPVSNTGEDGYQGTAPVTAFPPNGYGLYNIVGNAWEWTSDWWTVHHSADETLDPKGPPSGSDRVKKGGSYMCHKSYCYRYRCAARSQNTPDSSASNLGFRCAADRLPDTHHHHHHHDEL
- % FGly (LC-MS); co-expression with MdFGE: 100%

B4: Columba livia Lip2-C1FGE-His6-HDEL fusion construct (enzyme)
chain: MVVIPGGVFTMGTDEPAIQQDGEWPVRKVHVNSFYMDRYEVSNEDFERFVNSTGYVTEAEKFGDSFVFEGMLSEEVKAEIHQAVAAAPWWLPVKGANWKHPEGPDSNISNRMDHPVLHVSWNDAVAFCTWAGKRLPTEAEWEYSCRGGLENRLFPWGNKLQPKGQHYANIWQGVFPTNNTAEDGYKGTAPVTAFPPNGYGLYNIVGNAWEWTADWWAVHHSTEEVHNPKGPSSGTDRVKKGGSYMCHKSYCYRYRCAARSQNTPDSSASNLGFRCAADASPELPHHHHHHHDEL
- % FGly (LC-MS); co-expression with ClFGE: 100%
